Test results taken from patent publication US20250074972A1, “ANTIBODIES AND METHODS FOR GENERATING THE SAME” (priority 2021, published 2025).
“Also recorded” adds a separate entry of the source.

B1: 1B11 scAb: anti-Pga31 single chain antibody from naive human library; amino acid sequence SEQ ID NO: 2 (protein)
scFv: EVQLLESGGGVVQPGRSLRLSCAASGFTFSSYGMHWVRQAPGKGLEWVAVISYDGSNKYYADSVKGRFTISRDNSKNTLYLQMNSLRAEDTAVYYCARDRSGWGSLDYWGQGTLVTVSSLEGGGGSGGGGSGGGASDIVMTQSPDSLAVSLGERATINCKSSQNVLYSSNNKNYLAWYQQKSGQPPKLLIYWASTRESGVPDRFSGSGSGTDFTLTISSLQAEDVAVYYCQQYYSTPRTFGQGTKVEIK
modifications: 1B11 Amino Acid Sequence

Experiments:
C. albicans (SC5314) = assay: Galleria mellonella infection model, C. albicans; format: in vivo, Candida albicans; conditions: for survival of larvae: Galleria mellonella infected with 5×10^5 C. albicans, monitored 60 h, Mantel-Cox p<0.0001
Description: (§1) Galleria mellonella is a reliable infection model to test and compare antibody efficacy by monitoring the survival of the larvae. Ten Galleria mellonella larvae (Livefoods Direct Ltd, Sheffield, UK) with bodyweights of =250-300 mg were used for each test group and standardised inoculum of 5×10^5 C. albicans and 5×10^7 C. auris yeast cells/larvae were injected using Hamilton syringe (Cole-Parmer, UK, washed twice with 100% ethanol and sterile dH2O between every 5 injections) via the last pro-leg. Two control groups, one with no injection and the second with PBS injection were also set up. After injection, larvae were incubated for 48-60 h at 37° C. Survival was monitored first after 24 h and then every 6 h. A Kaplan-Meier plot was generated to assess the survival of larvae infected with C. albicans and C. auris, monitoring the survival rate for 60 h (FIG. 8).
(§2) In addition, the fungal burden of various test groups was calculated by measuring the number of colony forming units (CFU) as an indicator of fungal growth within the larvae and early fungicidal/fungistatic activity of the antibody. […] (FIG. 9A).

[1] = system: Candida albicans strain SC5314; assay: Mouse model of disseminated Candidiasis, Study 1; format: in vivo; conditions: caspofungin 1 mg/kg at 24 h post-infection; p=0.004
Description: In study 1, the protective effect of mAb 1B11 as a prophylactic agent with single dosing before and after the administration of fungal inoculum was investigated. Female BALB/c mice, 7-9 weeks old were purchased from Envigo Ltd. and randomly assigned to groups of 6 for treatment and control. The Candida albicans inoculum was prepared by growing strain SC5314 in NGY medium for 16 h, shaking at 30° C. Cells were harvested and washed with saline, then counted and resuspended in saline to provide an inoculum of approx. 2×10^4 CFU/g mouse body weight in 100 μl. Mice were infected intravenously.
Actual inoculum level was determined by plating dilutions of the inoculum on Sabouraud dextrose agar and incubating overnight at 30° C. It was determined to be 2.2×10^4 CFU/g mouse body weight.
Animals were allocated into four main groups as explained below. The treatment dose of 1B11 mAb was 15 mg/kg per mouse. All treatments were administered intraperitoneally (IP) in 150 μl saline. […]
Mice were monitored and weighed every day and were culled on day 4 post-infection and the kidneys removed aseptically. […] Burdens were determined by plating out kidney homogenate and counting colonies after 48 h growth at 30° C. […]

[2] = system: Candida albicans strain SC5314; assay: Mouse model of disseminated Candidiasis, Study 3; format: in vivo; conditions: 1 mg/kg at 24 h and 72 h post-infection; day 7
Description: In study 3, the protective effect of mAb 1B11 as a prophylactic agent with single dosing 3 hours before infection followed by two dosing 24 h and 72 h post infection was investigated.
In addition, a treatment only arm with the administration of 1B11 mAb 24 h and 72 h post infection was also included.
Animals were allocated into four main groups as explained below. The treatment dose of 1B11 mAb was 12.5 mg/kg per mouse. All treatments were administered intraperitoneally (IP) in 200 μl saline.
The study plan is shown in FIG. 19 and is as follows: • Group 1—Pre-treatment with 1B11 mAb at 3 h before infection, followed by treatment at 24 h and 72 h post-infection. • Group 2—Injected with saline at 3 h before infection, treatment with 1B11 at 24 h and 72 h post-infection. • Group 3—Saline injections at all three time points • Group 4—caspofungin treatment (1 mg/kg) at 24 h and 72 h post-infection
Mice were monitored and weighed every day and were culled on day 7 post-infection and the kidneys removed aseptically. Kidneys were split […], with one half of each kidney used to determine burdens, one half frozen on OCT and one half fixed in formalin at 4° C. Burdens were determined by plating out kidney homogenate and counting colonies after 48 h growth at 30° C. Statistical comparisons were carried out using IBM SPSS version 24. […]

C. auris (1716) [3] = assay: Biofilm formation assay (crystal violet), C. auris; format: cell-based, Candida auris
Description: (§3) The ability of 1B11 scAb in preventing the formation of biofilm in C. albicans ([…]) and C. auris (1716) was tested. The growth medium used were RPMI and 20% Foetal Calf Serum (FCS) and the assay was carried out in 96 well microtitre plates. Test antibody 1B11 scAb at a starting concentration of 160 μg/ml was double diluted down the plate and the top row served as positive control with cells only. The final number of cells added to each well was kept constant at 1×10^5/ml and the plate was incubated at 37° C. for 24 h. Following incubation, the biofilm plate was gently washed two times with PBS to remove non-adhering cells and allowed to dry at room temperature overnight. The biofilm was stained with 100 μl 0.05% crystal violet for 20 min followed by washing with Millipore Q water and 200 ul of 100% ethanol. Contents of each well were transferred to a new plate and absorbance was read at 570 nm wavelength.

[4] = system: total cell lysates of WT C. albicans (SC5314); assay: Pga31 scAbs binding ELISA on total cell lysates of WT C. albicans treated with or without caspofungin; set-up: species or system Candida albicans; conditions: absorbance 450 nm, cells treated or untreated with 0.032 μg/ml caspofungin
Description: (§4) The reaction was stopped using 1 M H2SO4 and the absorbance values measured using a microplate reader at absorbance 450 nm. For total cell lysate ELISA, C. albicans WT and pga31 single mutant strain overnight cultures were inoculated into fresh YPD at OD600 nm of 0.1-0.2, grown for 3-4 h at 30° C. until OD of 0.5-0.6 was reached and then treated with caspofungin (0.032 μg/ml) for 90 min. After 90 min growth cells were harvested, centrifuged for 5 min at 4000 rpm and washed and cell lysate was prepared. This was used to coat ELISA plates at 37° C. for 1 h, plates were washed and blocked with 2% MPBS as before, followed by the two-fold serial dilution of scAb samples.

C. auris (1716) [5] = assay: Galleria mellonella infection model, C. auris; format: in vivo, Candida auris; conditions: for survival of larvae: Galleria mellonella infected with 5×10^7 C. auris, monitored 60 h, versus non-treated, Mantel-Cox p<0.0001
Description: as §1, §2

C. albicans (SC3514) = assay: Biofilm formation assay (crystal violet), C. albicans; format: cell-based, Candida albicans
Description: as §3

[6] = system: cell lysates of pga314 mutant strain; assay: Pga31 scAbs binding ELISA on cell lysates of pga31 mutant strain; set-up: species or system Candida albicans; conditions: with or without 0.032 μg/ml caspofungin
Description: as §4

[7] = at higher concentrations (start 160 μg/ml, double diluted), 24 h incubation

Row | Molecule | survival of larvae (C. albicans (SC5314)) | kidney organ burdens compared to saline treated mice [1] | kidney burdens, caspofungin group compared to saline treated group [2] | C. auris growth under biofilm-inducing conditions (C. auris (1716) [3]; 24 h, RPMI or 20% FCS) | biofilm formation (C. auris (1716) [3]; [7]) | biofilm biomass (crystal violet) compared to the control (C. auris (1716) [3]; both RPMI and 20% FCS conditions, T-test, p<0.0001, p<0.0004) | scAb binding to lysates of caspofungin treated versus untreated cells [4] | fungal burden (colony forming units) in larvae (C. auris (1716) [5]; 4 h and 24 h incubation, versus non-treatment group) | survival of larvae (C. auris (1716) [5]) | survival of larvae (C. auris (1716) [5]; listed as anti-Pga31 antibody) | C. albicans growth under biofilm-inducing conditions (C. albicans (SC3514); 24 h, especially in 20% foetal calf serum) | biofilm biomass (crystal violet) compared to the control (C. albicans (SC3514); RPMI conditions, T test, p<0.0001) | biofilm formation (C. albicans (SC3514); [7]) | fungal burden (colony forming units) in larvae (C. albicans (SC5314); versus non-treatment group, statistically significant in 24 h group) | scAb binding to mutant strain lysate [6]
1 | CC[C@H](C)C[C@H](C)CCCCCCCCC(=O)N[C@H]1C[C@@H](O)[C@@H](NCCN)NC(=O)[C@@H]2[C@@H](O)CCN2C(=O)[C@H]([C@H](O)CCN)NC(=O)[C@H]([C@H](O)[C@@H](O)c2ccc(O)cc2)NC(=O)[C@@H]2C[C@@H](O)CN2C(=O)[C@H]([C@@H](C)O)NC1=O [caspofungin, reference compound] | significant survival percentage; also recorded: only had marginal effect | significant decrease | highly significant difference | – | – | – | – | – | – | – | – | – | – | – | –
2 | B1 | significant survival percentage | – | – | did not significantly inhibit C. auris growth under biofilm-inducing conditions except at the highest concentration tested | able to inhibit biofilm formation | significantly different | increase in scAb binding | inhibited; also recorded: notable inhibition of growth | significant survival percentage | survived significantly more | significantly inhibited | significantly different | able to inhibit biofilm formation | lower level of growth inhibition | lack of scAb binding
